B1: RNA-binding E3 ubiquitin-protein ligase MEX3C, residues 325 to 391; numbered along this chain, Q5U5Q3 (parent)
chain: GQTTVQVRVPYRVVGLVVGPKGATIKRIQQQTHTYIVTPSRDKEPVFEVTGMPENVDRAREEIEMHI

Variants of: B1
Experiment: abundance fitness (aPCA) (normalised: wild type 0, dead -1); higher = more abundant; growth selection in yeast, the domain comes from the species named
Conditions: Homo sapiens

Abundance fitness of substitutions, site by site:
A59: K -0.671 | I -1.08 | H -0.859 | W -1.08 | D -0.915 | V -0.719 | P -0.854
V46: E -0.767 | F -0.503 | L -0.332 | K -0.321 | I -0.093 | T -0.526 | A -0.676 | P -0.66 | W -0.662 | H -0.579 | C -0.645 | Q -0.621 | Y -0.146 | G -0.7 | S -0.774 | M -0.361 | R -0.607 | N -0.62
R60: V -0.006 | L -0.098 | E -0.739 | G -0.575 | A -0.694 | W -0.53 | D -1.13 | P -0.651 | M -0.296 | C -0.025 | H -0.401 | T -0.557 | F -0.526 | K -0.024 | I -0.026 | Q -0.639
R58: K 0.067 | N -0.434 | F -0.519 | D -0.73 | G -0.675 | S -0.614 | E -0.572 | T -1.1 | M -0.409 | I -0.954 | W -0.555 | V -0.616 | P -1.09 | C -0.36 | Q -0.304
V56: C 0.009 | E -0.927 | L -0.574 | I -0.21 | S -0.496 | R -0.799 | D -0.75 | Y -0.62 | Q -0.455 | W -0.809 | T -0.286 | K -0.402 | N -1.11 | H -0.712 | A -0.585 | M -0.455
E54: P -0.235 | W -0.174 | V -0.485 | C -0.482 | A -0.079 | Y -0.382 | Q -0.321 | L -0.325 | R -0.248 | S -0.213 | N -0.419 | T -0.267 | M -0.575 | H -0.332 | D -0.119 | G -0.179 | F -0.815 | I -0.377 | K -0.519
G51: S -0.918 | R -0.726 | D -0.656 | L -0.794 | K -0.448 | Y -0.918 | Q -0.776 | H -0.789 | E -0.599 | F -0.701 | T -1.05 | P -0.78 | W -0.951 | C -1.05
E62: Q 0.034 | I -0.318 | C 0.054 | V -0.114 | T -0.52 | L 0.115 | S -0.373 | R -0.299 | Y -0.255 | P -1.01 | H -0.602 | G -0.679 | K -0.126 | N -0.639 | A 0.025 | M 0.132 | D -0.494
I63: A -0.845 | C -0.734 | S -0.894 | Y -0.748 | P -0.461 | Q -0.863 | H -0.772 | L -0.412 | W -0.768 | V -0.512 | N -0.094 | M -0.772 | G -0.899
E44: M -0.687 | V -0.472 | W -0.695 | Q -0.305 | P -0.374 | T -0.798 | C -0.834 | G -0.492 | F -0.906 | R -0.719 | A -0.177 | L -0.582 | S -0.459 | K -0.697 | N -0.222
N55: T -0.627 | E -0.401 | Y -0.811 | S -0.426 | I -0.646 | L -0.885 | C -0.544 | D 0.033 | F -0.711 | A -0.146 | V -0.8 | W -1.17 | R -0.789 | Q 0.138 | G -0.281 | K -0.647 | M -0.541

From the Human Domainome abundance scans (Beltran et al. 2025)
